From patent US8008547B2, “Glyphosate-N-acetyltransferase (GAT) genes” (E.I. duPont de Nemours, priority 2000, dated 2011)

Assay: Standard protocol for determination of kcat and KM (continuous spectrophotometric assay, Acetyl CoA hydrolysis at 235 nm)
Assay type: biochemical
Conditions: purified protein, about 23° C., 0.2 mM acetyl CoA; for Kcat: 20 mM HEPES pH 6.8, 10% ethylene glycol; for Km: pH 6.8, glyphosate 0.125 to 10 mM
In short: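 KM from initial rates over 0.125–10 mM glyphosate, fitted by Lineweaver-Burke transformation of Michaelis-Menten; kcat/KM computed as kcat divided by KM. Continuous spectrophotometric read of acetyl-CoA hydrolysis at 235 nm.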

B1: SEQ ID NO: 278: GAT polypeptide (protein)
chain: MIEVKPINAEDTYEIRHRILRPNQPLEACKYETDLLRGAFHLGGYYRGKLISIASFHQAEHPELEGQKQYQLRGMATLEGYREQKAGSTLIRHAEELLRKKGADLLWCNARTSASGYYKKLGFSEQGEVYDTPPVGPHILMYKKLT
modifications: 10_2C7
notes: GAT polypeptide
B1 showed a Kcat of 2.25 s⁻¹ and a Km of 1400 µM.

B2: SEQ ID NO: 279: GAT polypeptide (protein)
chain: MIEVKPINAEDTYEIRHRILRPNQPLEACKYETDLLGGTFHLGGYYRGKLVSIASFHQAEHPELEGQKQYQLRGMATLEGYREQKAGSTLIRHAEELLRKKGADLLWCNARTSASGYYKKLGFSEQGEVYDIPPTGPHILMYKKLT
modifications: 10_3G5
notes: GAT polypeptide
B2 gave a Kcat of 1.46 s⁻¹ and a Km of 2000 µM.

B3: SEQ ID NO: 474: GAT polypeptide (protein)
chain: MLEVKPINAEDTYELRHRILRPNQPLEACMYETDLLRGSFHLGGFYRGKLISIASFHQAEHSELEGQKQYQLRGMATLEGYRDQKAGSSLIRHAEEILRKRGADMLWCNARTTAAGYYKKLGFSEQGEIYDTPPVGPHILMYKKLT
modifications: 1_2F8
notes: GAT polypeptide
With B3 the Kcat was 2.68 s⁻¹ and the Km was 1900 µM.

B4: SEQ ID NO: 471: GAT polypeptide (protein)
chain: MLEVKPINAEETYELRHKILRPNQPIEACMYETDLLRGSFHLGGFYRGQLISIASFHQAEHSDLQGQKQYQLRGMATLEGYREQKAGSTLIKHAEELLRKKGADLLWCNARTTAAGYYKKLGFSEQGEVFDTPPVGPHILMYKKIT
modifications: 1_2C4
notes: GAT polypeptide
Work on B4 yielded a Kcat of 3.22 s⁻¹ and a Km of 800 µM.

B5: SEQ ID NO: 486: GAT polypeptide (protein)
chain: MLEVKPINAEDTYELRHRILRPNQPIEACMYESDLLRGAFHLGGYYRGKLISIASFHQAEHSELQGQKQYQLRGMATLEGYREQKAGSSLVKHAEEILRKRGADLLWCNARTSASGYYKKLGFSEQGEIFETPPVGPHILMYKRIT
modifications: 3_11A10
notes: GAT polypeptide
For B5, the Kcat was 2.2568 s⁻¹ and the Km was 170 µM.

B6: SEQ ID NO: 490: GAT polypeptide (protein)
chain: MLEVKPINAEDTYELRHRILRPNQPIEACMYESDLLRGAFHLGGYYRGKLISIASFHQAEHPELQGQKQYQLRGMATLEGYREQKAGSSLIKHAEEILRKRGADLLWCNARTSASGYYKKLGFSEQGEVFETPPVGPHILMYKRIT
modifications: 3_6B1
notes: GAT polypeptide
B6 gave a Kcat of 4.3847 s⁻¹ and a Km of 430 µM.

B7: SEQ ID NO: 487: GAT polypeptide (protein)
chain: MLEVKPINAEDTYELRHRILRPNQPIEACMYESDLLRGAFHLGGFYRGKLISIASFHQAEHSELQGQKQYQLRGMATLEGYREQKAGSSLIKHAEEILRKRGADLLWCNARTSASGYYKKLGFSEQGEIFETPPVGPHILMYKRLT
modifications: 3_14F6
notes: GAT polypeptide
Work on B7 yielded a Kcat of 3.1405 s⁻¹ and a Km of 250 µM.

B8: SEQ ID NO: 491: GAT polypeptide (protein)
chain: MLEVKPINAEDTYELRHRILRPNQPIEACMYESDLLRGAFHLGGYYGGKLISIASFHQAEHSDLQGQKQYQLRGMATLEGYREQKAGSSLIKHAEEILRKRGADLLWCNARTSASGYYKKLGFSEQGEIFETPPVGPHILMYKRIT
modifications: 3_7F9
notes: GAT polypeptide
B8 gave a Kcat of 3.2258 s⁻¹ and a Km of 290 µM.

B9: SEQ ID NO: 488: GAT polypeptide (protein)
chain: MLEVKPINAEDTYELRHKILRPNQPLEVCMYETDLLRGAFHLGGYYGGKLISIASFHQAEHSELQGQKQYQLRGMATLEGYREQKAGSSLIKHAEEILRKRGADLLWCNARTSASGYYKKLGFSEQGEIFETPPVGPHILMYKRIT
modifications: 3_15B2
notes: GAT polypeptide
B9 gave a Kcat of 1.7355 s⁻¹.

B10: SEQ ID NO: 472: GAT polypeptide (protein)
chain: MIEVKPINAEDTYELRHKILRPNQPLEACMYESDLLRSAFHLGGFYRGKLISIASFHKAEHSELQGQKQYQLRGMATLEGYRDQKAGSSLIRHAEEILRKRGADMLWCNARTSAAGYYKRLGFSEQGEVFDTPPVGPHILMYKRIT
modifications: 1_2D2
notes: GAT polypeptide
B10 gave a Kcat of 2.07 s⁻¹ and a Km of 1200 µM.

B11: SEQ ID NO: 476: GAT polypeptide (protein)
chain: MIEVKPINAEDTYELRHRILRPNQPIEACMYESDLLRGAFHLGGFYRGKLISIASFHQAEHSDLQGQKQYQLRGMATLEGYREQKAGSSLIRHAEEILRKKGADMLWCNARTTAAGYYKRLGFSEQGEVFDTPPVGPHILMYKRIT
modifications: 1_3A2
notes: GAT polypeptide
B11 gave a Kcat of 3.02 s⁻¹ and a Km of 800 µM.

B12: SEQ ID NO: 473: GAT polypeptide (protein)
chain: MIEVKPINAEDTYELRHRILRPNQPIEACMYESDLLRGSFHLGGFYRGKLISIASFHQAEHSDLQGQKQYQLRGMATLEGYREQKAGSSLIKHAEQLLRKKGADMLWCNARTSAAGYYKRLGFSEHGEIFETPPVGPHILMYKRIT
modifications: 1_2D4
notes: GAT polypeptide
Work on B12 yielded a Kcat of 3.03 s⁻¹ and a Km of 1200 µM.

B13: SEQ ID NO: 484: GAT polypeptide (protein)
chain: MIEVKPINAEETYELRHRILRPNQPIEACMYESDLLRGSFHLGGFYRGKLISIASFHQAEHSDLEGQKQYQLRGMATLEGYRDQKAGSTLIKHAEELLRKRGADMLWCNARTSAAGYYKRLGFSEHGEIYETPPVGPHILMYKKIT
modifications: 1_6F12
notes: GAT polypeptide
B13 gave a Kcat of 3.48 s⁻¹ and a Km of 14700 µM.

B14: SEQ ID NO: 482: GAT polypeptide (protein)
chain: MIEVKPINAEDTYELRHRILRPNQPLEACMYETDLLRGSFHLGGFYRGKLISIASFHQAEHSDLQGQKQYQLRGMATLEGYREQKAGSTLIRHAEQLLRKRGADLLWCNARTSASGYYKRLGFSEHGEVFDTPPVGPHILMYKRLT
modifications: 1_4H1
notes: GAT polypeptide
For B14, the Kcat was 3.93 s⁻¹ and the Km was 1200 µM.

B15: SEQ ID NO: 489: GAT polypeptide (protein)
chain: MIEVKPINAEDTYELRHRILRPNQPIEACMYESDLLRGAFHLGGYYRGKLISIASFHQAEHSELQGQKQYQLRGMATLEGYREQKAGSSLIKHAEEILRKRGADLLWCNARTSASGYYKKLGFSEQGEIFETPPVGPHILMYKRIT
modifications: 3_6A10
notes: GAT polypeptide
B15 showed a Kcat of 2.108 s⁻¹ and a Km of 660 µM.

B16: SEQ ID NO: 478: GAT polypeptide (protein)
chain: MIEVKPINAEETYELRQRILRPNQPIEACMYESDLLRGSFHLGGFYRGQLISIASFHQAEHSELQGQKQYQLRGMATLEGYREQKAGSTLIKHAEEILRKKGADLLWCNARTSAAGYYKRLGFSEHGEIFDTPPVGPHILMYKRIT
modifications: 1_3F3
notes: GAT polypeptide
For B16, the Kcat was 2.78 s⁻¹ and the Km was 1500 µM.

B17: SEQ ID NO: 475: GAT polypeptide (protein)
chain: MIEVKPINAEETYELRHKILRPNQPLEACMYETDLLRGAFHLGGFYRGKLISIASFHQADHSELQGQKQYQLRGMATLEGYREQKAGSTLIRHAEQILRKRGADLLWCNARTSAAGYYKKLGFSEHGEIFETPPVGPHILMYKRLT
modifications: 1_2H8
notes: GAT polypeptide
For B17, the Kcat was 2.35 s⁻¹ and the Km was 480 µM.

B18: SEQ ID NO: 483: GAT polypeptide (protein)
chain: MLEVKPINAEETYELRHKILRPNQPLEACMYESDLLRGSFHLGGYYRGQLISIASFHQAEHSELEGQKQYQLRGMATLEGFREQKAGSTLIKHAEQILRKRGADMLWCNARTSAAGYYKKLGFSEHGEIFDTPPVGPHILMYKKLT
modifications: 1_5H5
notes: GAT polypeptide
In the case of B18, the Kcat is reported as 3.57 s⁻¹ and the Km is reported as 510 µM.

B19: SEQ ID NO: 480: GAT polypeptide (protein)
chain: MIEVKPINAEDTYELRHKILRPNQPIEACMYESDLLRGSFHLGGFYRGKLISIASFHKAEHSDLEGQNQYQLRGMATLEGYREQKAGSTLIRHAEEILRKRGADMLWCNARTSASGYYKRLGFSEHGEIFDTPPVGPHILMYKRLT
modifications: 1_4C5
notes: GAT polypeptide
For B19, the Kcat was 4.23 s⁻¹ and the Km was 930 µM.

B20: SEQ ID NO: 481: GAT polypeptide (protein)
chain: MLEVKPINAEDTYELRHRILRPNQPIEACMYETDLLRGSFHLGGFYRGQLISIASFHKAEHSDLEGQKQYQLRGMATLEGYREQKAGSTLIRHAEQILRKRGADMLWCNARTSAAGYYKRLGFSEQGEVFETPPVGPHILMYKRLT
modifications: 1_4D6
notes: GAT polypeptide
B20 gave a Kcat of 2.28 s⁻¹ and a Km of 1400 µM.

B21: SEQ ID NO: 477: GAT polypeptide (protein)
chain: MIEVKPINAEDTYELRHKILRPNQPIEACMYESDLLQGSFHLGGFYRGQLISIASFHQAEHSDLQGQKQYQLRGMATLEGFREQKAGSTLIKHAEEILRKKGADLLWCNARTSAAGYYKKLGFSEHGEIFDTPPAGPHILMYKKLT
modifications: 1_3D6
notes: GAT polypeptide
For B21, the Kcat was 3.77 s⁻¹ and the Km was 3500 µM.

B22: SEQ ID NO: 485: GAT polypeptide (protein)
chain: MIEVKPINAEDTYELRHKILRPNQPIEACMYESDLLRGSFHLGGFYRGQLISIASFHQAEHSDLEGQKQYQLRGMATLEGYRDQKAGSSLIKHAEEILRKRGADLLWCNARTSAAGYYKRLGFSEQGEIFDTPPVGPHILMYKKIT
modifications: 1_6H6
notes: GAT polypeptide
B22 gave a Kcat of 4.57 s⁻¹ and a Km of 1050 µM.

B23: SEQ ID NO: 479: GAT polypeptide (protein)
chain: MIEVKPINAEDTYELRHRILRPNQPIEACMYETDLLRGAFHLGGYYRGQLISIASFHKAEHSELQGQKQYQLRGMATLEGYREQKAGSTLIKHAEQLLREKGADMLWCNARTSAAGYYKRLGFSEQGEVFDTPPVGPHILMYKKLT
modifications: 1_3H2
notes: GAT polypeptide
With B23 the Kcat was 2.13 s⁻¹ and the Km was 700 µM.
